B1: SNARE-associated protein Snapin (Homo sapiens), O95295 (parent)
chain: MAGAGSAAVSGAGTPVAGPTGRDLFAEGLLEFLRPAVQQLDSHVHAVRESQVELREQIDNLATELCRINEDQKVALDLDPYVKKLLNARRRVVLVNNILQNAQERLRRLNHSVAKETARRRAMLDSGIYPPGSPGK

Variants of: B1
Conditions: with snp25_rat Snap25, P60881
Chain of snp25_rat Snap25, P60881 (P60881 whole entry, looked up): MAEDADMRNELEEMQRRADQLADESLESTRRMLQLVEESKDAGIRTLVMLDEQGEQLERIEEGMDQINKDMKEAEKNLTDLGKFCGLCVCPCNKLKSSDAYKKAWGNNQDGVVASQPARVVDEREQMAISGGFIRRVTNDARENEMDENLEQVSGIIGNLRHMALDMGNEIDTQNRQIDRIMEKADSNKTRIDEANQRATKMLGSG

Q: MAGAGSAAVSGAGTPVAGPTGRDLFAEGLLEFLRPAVQQLDSHVHAVRESQVELREQIDNLATELCRINEDQKVALDLDPYVKKLLNARRRVVLVNNILQNAQERLRRLNHSVAKEDARRRAMLDSGIYPPGSPGK [T117D] was tested. Which “effect of a mutation on the interaction” value did it give?
A: decreasing interaction
